The results in this text go back to US12570725.

Several values for one entry are separate records, joined by “and”; a condition that tells them apart may be missing. Equal values may be shown once. Read-outs that look alike come from different tables or passages of the source.

The target in assay [1] is Dengue virus serotype 1 virion (Dengue virus serotype 1). Nature of the assay: cell-based or functional assay.
Assay [2] concerns the target Dengue virus serotype 2 virion (Dengue virus serotype 2). Nature of the assay: cell-based or functional assay.
Assay [3] has as its target Dengue virus serotype 3 virion (Dengue virus serotype 3). Nature of the assay: cell-based or functional assay.
Assay [4] addresses Dengue virus serotype 4 virion (Dengue virus serotype 4). The assay can be described thus: cell-based or functional assay.
For assay [5], the target named is whole Zika virus (ZIKV) virion (Zika virus). The assay can be described thus: cell-based or functional assay.
Assay [6] shares this target. The assay can be described thus: cell-based or functional assay. The source holds these as a separate data set.
The target is the same in assay [7]. Nature of the assay: whole ZIKV virion ELISA, 5-fold dilutions from 100 ug/ml.
Assay [8] shares this target. The assay can be described thus: whole ZIKV virion ELISA; molar conversion with IgM ~970 KDa. For orientation: In an ELISA, binding on a coated surface is turned into a signal by an enzyme label.
For assay [9] the target is unchanged. Nature of the assay: whole ZIKV virion ELISA; molar EC50 of IgM compared with IgG.
The target is the same in assay [10]. Nature of the assay: whole ZIKV virion ELISA; molar conversion with IgG ~150 KDa.

B1: DH1017.IgM (antibody, V domains shown)
VH: QVQLQESGPGLVKPSQTLSLTCAVSGGSISSGDSYWSWIRQHPGKGLEWIGSIYYSGSTYYNPSLKSRVTIPIDTSKNQFSLKLSSVTAADTAVYYCARHVGDLRVNDAFDIWGQGTMVTVSS
VL: QSVLTQPPSVSAAPGQKVTISCSGSSSNIGNNFVSWYQRLPGTPPKLLIYDSDKRPSGIPDRFSGSKSGTSATLGITGLQTGDEGDYYCGTWDRSLSVVVFGGGTKLTVL
Take B1: the FRNT50 is more than 5 µg/mL in assay [1]; more than 5 µg/mL in assay [2]; more than 5 µg/mL in assay [3]; more than 5 µg/mL in assay [4]; 6.57 ng/mL in [5]; 24.7 ng/ml and 25.5 pM in [6]. For the same molecule, the fold difference in neutralizing activity, IgM versus IgG at equal numbers of molecules in [6] was found to be 40 fold. For the same molecule, the half-maximal effective concentration (EC50) (usually the concentration that produces a half-maximal response) came out at 0.046 µg/mL in [7] and 0.474 nM in assay [8]. The same molecule showed a fold difference of molar EC50 against DH1017.IgG in [9] of 6 fold.

B2: DH1017.IgG (antibody, V domains shown)
VH: B1 VH
VL: B1 VL
Consider B2, for which the EC50 in assay [7] is 0.045 µg/mL; in assay [10], 3 nM.
